Source: patent US9878005B2, “Method of promoting wound healing with hyodxia-induced mitogenic factor” (THE JOHNS HOPKINS UNIVERSITY, priority 2003, dated 2018)

What was measured:
[1] = tested on: Akt phosphorylation (PI3K/Akt pathway) in RPSM; experiment: Western blot for pAkt and Akt in RPSM; assay type: cell-based, rat; conditions: for inhibition of HIMF-activated Akt phosphorylation: 5 minutes
Description: Western blots. The tissue collection and homogenization were performed as described before^1. HIMF was detected with 1:1000 dilution of the anti-HIMF antibody (raised in rabbit using the peptide CENKVKELLANPANYP (SEQ ID NO: 10) conjugated to keyhole limpet hemocyanin as the antigen) followed by 1:3000 dilution of goat anti-rabbit HRP-labeled antibody (BioRad, Hercules, Calif.). The specificity of the anti-HIMF antibody was preliminarily characterized with peptide competition. The peptide used as the immunogen blocked only the HIMF band and had no effect on the nonspecific bands. For phospho-Akt (pAkt) and Akt blots, RPSM were lysed in CelLytic-M (Sigma, St. Louis, Mo.) supplemented with 1 mM PMSF and 1:100 of protease inhibitor cocktail, phosphatase inhibitor cocktail 1 and 2 (Sigma, St. Louis, Mo.). 18 μg of protein in equal volume was subjected to electrophoresis in 4-20% polyacrylamide gel (BioRad, Hercules, Calif.). After transfer to nitrocellulose membrane, the membrane was first probed with anti-pAkt1/2/3(Thr308)(1:500, (Santa Cruz Biotechnology, Santa Cruz, Calif.). Then it was stripped and reprobed with anti-Akt1/2/3 (1:500, (Santa Cruz Biotechnology, Santa Cruz, Calif.).

[2] = tested on: rat pulmonary microvascular smooth muscle cells (RPSM); experiment: 3H-thymidine incorporation assay (RPSM proliferation); assay type: cell-based; conditions: for inhibition of serum-induced RPSM proliferation: preliminary experiments
From the text: Cell culture and ^3H-thymidine incorporation assays. Rat pulmonary microvascular smooth muscle cells (RPSM) were isolated from male Sprague-Dawley rats (150-200 g) according to a published method2. Briefly, after the pulmonary artery was flushed with phosphate buffered saline (PBS), it was infused with 2% iron oxide suspension in 0.5% agar. The air spaces were filled with agar, the subpleural margins were harvested and partially collagenase digested, and the microvessels were separated magnetically. The identity of RPSM was confirmed by characteristic appearance on phase-contrast microscopy and indirect immunofluorescent antibody staining for smooth muscle-specific isoforms of […] and myosin heavy chain. RPSM were grown in DMEM/F12 medium supplemented with 10% fetal bovine serum (FBS), 2 mM of glutamine, […] of penicillin and 100 μg/ml of streptomycin. Passage 3 to 5 cells were used in the experiments.
The cells were seeded in 24-well plates at 5×10^4/well. After synchronization with serum-free DMEM/F12 (supplemented with 1% Bovine serum albumin (BSA)) for 24 to 48 hours, the cells were treated with the specified agents and 0.1 μCi/well (or 1 μCi/well) of 3H-thymidine in the serum-free DMEM/F12 for 48 hours. After the experimental protocol was completed, the cells were rinsed with PBS twice and incubated in 10% TCA for 30 min. The cells were then washed with PBS two more times and lysed in 250 μl of the lysis buffer (1% SDS, 0.8% NaOH). 3H-thymidine incorporation was measured with a Beckman 6500 scintillation counter in 10 ml of scintillation cocktail.

[3] = tested on: Akt phosphorylation in L2 cells; experiment: Akt phosphorylation in L2 cells (HIMF isolation vs mock isolation); assay type: cell-based
Description: Recombinant HIMF. The C-terminal tagged HIMF was generated by PCR and inserted into pcDNA5/FRT/TO vector using the EcoR V and Xho I restriction sites. The pcDNA5/FRT/TO vector containing the recombinant HIMF gene was then integrated in a Flp recombinase-dependent manner into the genome of the Flp-In™ T-REx™ 293 cell line using the Flp-In™ T-REx™ kit from Invitrogen (Carlsbad, Calif.). Production of recombinant HIMF was induced by tetracycline (1 μg/ml) in the 293 cells maintained in DMEM supplemented with 5% FBS, 2 mM of glutamine, 100 U/ml of penicillin and 100 μg/ml of streptomycin, 100 μg/ml of hygromycin B, and 7.5 μg/ml of blasticidin. HIMF was purified by anti-FLAG M2 antibody agarose (Sigma, St. Louis, Mo.) column chromatography from the 293 cell culture medium with FLAG (0.1 mg/ml) elution. The concentration of the HIMF protein was estimated semi-quantitatively by silver staining after SDS-PAGE using BSA as the standard. […] Therefore, the recombinant protein has 96 amino acids and has a calculated molecular weight of 10,444 Da. […] To exclude the role of possible contaminants such as insulin, a mock isolation control experiment was performed. The medium obtained from the control TREx-293 cell culture was used for the mock isolation. […]

pulmonary vasculature = experiment: Intact chest mouse experiment; assay type: in vivo; conditions: intravenous injection
Description: Intact chest mouse experiment. The animals were ventilated with 95% O2/5% CO2 and 2% isoflurane using a custom-designed, constant-flow mouse ventilator with tidal volume set to 6.7 ml/kg at 140 breaths/min. A femoral artery was cannulated for the measurement of systemic arterial pressure, which was measured with a Viggo-Spectramed transducer attached to a polygraph (Grass Instruments, model 7). Heart rate was determined from the systolic pressure pulses with a tachometer (Grass, model 7P44A), and the left jugular vein was cannulated for the administration of drugs. The animals were strapped in the supine position to a fluoroscopic table, and PAP was measured with a specially designed murine pulmonary arterial catheter attached to a pressure transducer (Schneider/Namic). Mean PAP was derived electronically, and pulmonary arterial wedge pressure was determined by recently described procedures^6. Cardiac output was measured by the thermodilution technique by injection of a known volume (20 μl) of 0.9% NaCl solution at 23° C. into the right atrium and measurement of blood temperature changes in the root of the aorta with a cardiac output computer (Cardiotherm 500, Columbus Instruments, Columbus, Ohio) equipped with a small-animal interface. A thermistor microprobe (Columbus Instruments, Fr-1) was inserted into the right carotid artery and advanced to the aortic arch, where changes in aortic blood temperature were measured.

[4] = tested on: vascular tube formation in the Matrigel plug; experiment: Matrigel plug assay in vivo; parameters: species or system mouse; conditions: HIMF 50 nM final, subcutaneous, 7 days; FLAG control 4.3±0.84; n=3, P<0.001
Description: Matrigel plug assays: 200 μl of Matrigel mixed with FLAG or HIMF (50 nM final) was injected subcutaneously (n=3 for each group) on the back of mice. Mice were sacrificed after 7 days and the Matrigel plugs collected. Following fixation in 4% paraformaldehyde in PBS ([…], pH 7.4), 10 μm frozen sections were cut and stained either with hemotoxylin and eosin (HE) or von Willebrand factor (vWF). For the detection of vWF, anti-human vWF (1:250 dilution, Dako) and anti-rabbit IgG conjugated with FITC (1:500 dilution) were used. The positive cells were counted and expressed as cell numbers per 20× field.

| Molecule | inhibition of HIMF-activated Akt phosphorylation ([1]; inhibitor 20 μmol/L, HIMF 5×10^−8 mol/L) | inhibition of serum-induced RPSM proliferation [2] | inhibition of HIMF-activated Akt phosphorylation ([1]; inhibitor 50 μmol/L, HIMF 5×10^−8 mol/L) | Akt phosphorylation in L2 cells ([3]; HIMF isolation, mock isolation had no effect) | activation of Akt by the recombinant protein ([3]; L2 cells, preliminary experiments) | pulmonary arterial pressure (PAP) (pulmonary vasculature) | pulmonary vascular resistance (PVR) (pulmonary vasculature) | pulmonary vasoconstrictor potency versus endothelin-1, angiotensin II, or serotonin (molar dose-response curves) (pulmonary vasculature) | Akt activation sustained through ([1]; HIMF 5×10^−8 mol/L) | activation of phosphorylation of Akt ([1]; HIMF 5×10^−8 mol/L) | time of peak Akt activation (phosphorylation) ([1]; HIMF 5×10^−8 mol/L) | activation of Akt by the recombinant protein ([1]; preliminary experiments) | proliferation of RPSM (3H-thymidine incorporation) ([2]; HIMF 3.3×10^−9 to 3.3×10^−8 mol/L) | vascular tube formation in the Matrigel plug [4] |
| --- | --- | --- | --- | --- | --- | --- | --- | --- | --- | --- | --- | --- | --- | --- |
| O=c1c(-c2ccc(O)cc2)coc2cc(O)cc(O)c12 [Genistein, reference compound] | did not inhibit | inhibit |  |  |  |  |  |  |  |  |  |  |  |  |
| O=C(Nc1cc(C(=O)Nc2ccc(S(=O)(=O)[O-])cc2S(=O)(=O)[O-])cc(C(=O)Nc2ccc(S(=O)(=O)[O-])cc2S(=O)(=O)[O-])c1)Nc1cc(C(=O)Nc2ccc(S(=O)(=O)[O-])cc2S(=O)(=O)[O-])cc(C(=O)Nc2ccc(S(=O)(=O)[O-])cc2S(=O)(=O)[O-])c1.[Na+].[Na+].[Na+].[Na+].[Na+].[Na+].[Na+].[Na+] [NF449, reference compound] |  | inhibit | did not inhibit |  |  |  |  |  |  |  |  |  |  |  |
| HIMF: hypoxia-induced mitogenic factor; recombinant C-terminal FLAG-tagged protein of 96 amino acids purified from 293 cell culture medium (protein, UniProt Q9EP95 24-111, looked up, C-terminal FLAG tag, hypoxia-induced mitogenic factor; recombinant C-terminal FLAG-tagged protein of 96 amino acids purified from 293 cell culture medium) Resistin-like alpha: DETIEIIVENKVKELLANPANYPSTVTKTLSCTSVKTMNRWASCPAGMTATGCACGFACGSWEIQSGDTCNCLCLLVDWTTARCCQLS |  |  |  | stimulated | activated | increased | increased | more potent | ≥ 60 min | strongly activated | 5 min | activated | dose-dependently increased | 17.7±1.37 /×20 field |
